Tests used:
[1] = target: full‐length SREC‐II at the surface of stably transfected CHO cells (UniProt Q96GP6); assay: flow cytometry on cells; SREC-II-overexpressing CHO cells against nontransfected CHO cells, on ice, PBS with 3% BSA; C1q 80 µg/mL (40 min, detected with anti-C1q and Cy-3 anti-mouse antibodies); Alexa Fluor 488-MalBSA or Alexa Fluor 568-CRT at 1, 5 and 10 µg/mL (30 min); MFI ratio
[2] = target: acetylated BSA (AcBSA) (bovine (from the name BSA)) (UniProt P02769); assay: SPR; AcBSA immobilized (900 RU, CM5, amine coupling; BSA as reference surface), serially diluted SREC-II(44-442) or SR-F1(20-421) injected; TBS-Ca-P; 20 µL/min; 25 °C; global fit, 1:1 Langmuir model; apparent KD

SREC‐II(44‐442), extracellular domain of scavenger receptor expressed by endothelial cells II, sequence (Q96GP6 other isoform, or with tags, fused parts or gaps): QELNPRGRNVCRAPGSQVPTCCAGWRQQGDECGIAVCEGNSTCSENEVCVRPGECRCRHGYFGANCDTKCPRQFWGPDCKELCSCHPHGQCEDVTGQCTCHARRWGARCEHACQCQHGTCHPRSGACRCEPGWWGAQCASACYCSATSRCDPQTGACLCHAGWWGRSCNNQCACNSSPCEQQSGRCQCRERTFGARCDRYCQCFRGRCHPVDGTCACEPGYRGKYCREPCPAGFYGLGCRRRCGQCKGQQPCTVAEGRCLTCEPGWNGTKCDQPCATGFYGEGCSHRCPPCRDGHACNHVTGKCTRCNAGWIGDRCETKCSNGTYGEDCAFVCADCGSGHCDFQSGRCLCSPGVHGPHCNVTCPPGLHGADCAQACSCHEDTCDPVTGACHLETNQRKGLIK
full‐length SREC‐II at the surface of stably transfected CHO cells, sequence (Q96GP6 44-871): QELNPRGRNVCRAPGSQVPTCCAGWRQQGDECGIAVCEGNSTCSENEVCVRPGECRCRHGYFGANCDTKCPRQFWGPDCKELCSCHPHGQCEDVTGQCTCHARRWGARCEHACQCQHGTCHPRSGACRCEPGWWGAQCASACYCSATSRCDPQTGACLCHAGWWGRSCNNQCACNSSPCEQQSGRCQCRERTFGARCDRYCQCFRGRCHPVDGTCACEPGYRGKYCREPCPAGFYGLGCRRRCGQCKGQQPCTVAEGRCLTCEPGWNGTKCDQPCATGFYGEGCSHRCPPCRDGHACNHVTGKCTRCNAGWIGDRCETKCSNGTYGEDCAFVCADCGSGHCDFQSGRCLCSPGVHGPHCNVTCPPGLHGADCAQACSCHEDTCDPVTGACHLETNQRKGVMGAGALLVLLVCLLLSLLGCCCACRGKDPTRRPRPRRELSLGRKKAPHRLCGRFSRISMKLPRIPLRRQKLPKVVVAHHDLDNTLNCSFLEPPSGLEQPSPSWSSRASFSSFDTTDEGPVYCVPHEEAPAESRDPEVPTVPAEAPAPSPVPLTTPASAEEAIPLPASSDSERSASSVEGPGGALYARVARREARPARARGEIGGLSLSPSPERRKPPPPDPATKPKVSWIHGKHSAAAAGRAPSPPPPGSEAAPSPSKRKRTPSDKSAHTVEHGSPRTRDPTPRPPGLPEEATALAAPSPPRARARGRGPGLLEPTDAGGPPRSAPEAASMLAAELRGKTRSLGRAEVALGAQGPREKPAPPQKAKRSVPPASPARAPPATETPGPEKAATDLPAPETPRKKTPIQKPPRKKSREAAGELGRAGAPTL
Alexa Fluor 488‐labelled MalBSA, sequence (P02769 25-607): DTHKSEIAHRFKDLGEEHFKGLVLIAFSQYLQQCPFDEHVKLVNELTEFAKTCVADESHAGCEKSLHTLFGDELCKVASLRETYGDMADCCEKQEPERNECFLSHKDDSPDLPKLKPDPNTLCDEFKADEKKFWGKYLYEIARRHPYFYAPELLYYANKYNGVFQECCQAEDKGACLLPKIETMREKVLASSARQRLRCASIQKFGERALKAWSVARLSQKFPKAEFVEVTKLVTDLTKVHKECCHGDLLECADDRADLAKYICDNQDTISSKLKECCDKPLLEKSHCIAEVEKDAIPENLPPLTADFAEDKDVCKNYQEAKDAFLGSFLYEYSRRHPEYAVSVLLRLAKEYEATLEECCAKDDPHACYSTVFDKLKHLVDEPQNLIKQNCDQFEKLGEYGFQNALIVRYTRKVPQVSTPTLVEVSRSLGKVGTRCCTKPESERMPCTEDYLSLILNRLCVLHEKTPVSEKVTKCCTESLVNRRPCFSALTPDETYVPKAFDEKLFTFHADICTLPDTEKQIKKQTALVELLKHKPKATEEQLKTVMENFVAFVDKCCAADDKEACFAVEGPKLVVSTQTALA

Substance	increase in binding compared with nontransfected CHO cells [1] [%]	Kd [2] [nM]	koff [2] [s⁻¹]	kon [2] [M⁻¹ s⁻¹]
Alexa Fluor 488‐labelled MalBSA (from UniProt P02769 25-607)	40 to 50			
SREC‐II(44‐442), extracellular domain of scavenger receptor expressed by endothelial cells II (from UniProt Q96GP6 44-442) (domain or fragment)		200	0.00015	7800

Source: publication PMC8487046
